According to patent publication US20240118272A1:

Tests used:
[1] = target: CD9(ECD)-ALP conjugate (human; bovine); experiment: HI-1000 capture immunoassay; secondary calibrator C1, 1.02 U/L; run 2
[2] = target: CD9(ECD)-ALP conjugate (human; bovine); experiment: HI-1000 capture immunoassay; primary calibrator C4, 50.05 ng/mL; run 2
[3] = target: CD9(ECD)-ALP conjugate (human; bovine); experiment: HI-1000 capture immunoassay; secondary calibrator C5, 387.01 U/L; run 3
[4] = target: CD9(ECD)-ALP conjugate (human; bovine); experiment: HI-1000 capture immunoassay; thawed aliquot 3 of secondary calibrator C4
[5] = target: CD9(FL)-ALP conjugate (human; bovine); experiment: HI-1000 capture immunoassay; calibrator C4, 21.93 mU/L; run 1
Sequence of CD9(FL)-ALP conjugate (human; bovine) (chain, as listed by the source, chain 1 of 2): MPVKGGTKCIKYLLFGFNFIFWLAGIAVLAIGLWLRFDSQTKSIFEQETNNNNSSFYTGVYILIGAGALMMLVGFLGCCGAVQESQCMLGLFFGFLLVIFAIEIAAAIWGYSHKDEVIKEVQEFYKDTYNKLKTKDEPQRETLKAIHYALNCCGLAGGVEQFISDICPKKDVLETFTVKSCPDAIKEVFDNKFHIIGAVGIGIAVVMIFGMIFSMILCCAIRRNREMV
Sequence of CD9(FL)-ALP conjugate (human; bovine) (P19111 20-506, chain 2 of 2): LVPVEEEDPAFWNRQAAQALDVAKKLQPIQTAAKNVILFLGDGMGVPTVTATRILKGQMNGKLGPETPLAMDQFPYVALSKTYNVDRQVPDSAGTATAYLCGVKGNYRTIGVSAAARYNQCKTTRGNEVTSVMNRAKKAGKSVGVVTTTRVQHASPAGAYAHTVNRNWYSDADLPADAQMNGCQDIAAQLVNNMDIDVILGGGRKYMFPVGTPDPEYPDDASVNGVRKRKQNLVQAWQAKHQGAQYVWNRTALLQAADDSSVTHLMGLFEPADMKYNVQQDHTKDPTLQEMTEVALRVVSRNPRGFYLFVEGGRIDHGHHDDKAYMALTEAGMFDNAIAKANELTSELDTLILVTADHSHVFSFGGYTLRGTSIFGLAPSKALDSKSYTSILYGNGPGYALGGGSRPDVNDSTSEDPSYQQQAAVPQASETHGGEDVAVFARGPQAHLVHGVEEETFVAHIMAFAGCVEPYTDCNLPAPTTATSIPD

[6] = target: CD9(FL)-ALP conjugate (human; bovine); experiment: HI-1000 capture immunoassay; calibrator C5, 30 ng/mL; run 3
[7] = target: CD9(FL)-ALP conjugate (human; bovine); experiment: HI-1000 capture immunoassay; calibrator C5, 43.86 mU/L; run 3
[8] = target: CD9(ECD)-ALP conjugate (human; bovine); experiment: HI-1000 capture immunoassay; primary calibrator C3, 15.65 ng/mL; run 2
[9] = target: CD9(ECD)-ALP conjugate (human; bovine); experiment: HI-1000 capture immunoassay; primary calibrator C1, 1.52 ng/mL; run 1
[10] = target: CD9(ECD)-ALP conjugate (human; bovine); experiment: HI-1000 capture immunoassay; primary calibrator C5, 159.87 ng/mL; mean of 3
[11] = target: CD9(ECD)-ALP conjugate (human; bovine); experiment: HI-1000 capture immunoassay; thawed aliquot 1 of secondary calibrator C3
[12] = target: CD9(ECD)-ALP conjugate (human; bovine); experiment: HI-1000 capture immunoassay; secondary calibrator C2; mean of 3 aliquots
[13] = target: CD9(ECD)-ALP conjugate (human; bovine); experiment: HI-1000 capture immunoassay; primary calibrator C3, 15.65 ng/mL; mean of 3
[14] = target: CD9(FL)-ALP conjugate (human; bovine); experiment: HI-1000 capture immunoassay; calibrator C1, 1.83 mU/L; mean of 3
[15] = target: CD9(ECD)-ALP conjugate (human; bovine); experiment: HI-1000 capture immunoassay; primary calibrator C3, 15.65 ng/mL; run 1
[16] = target: CD9(ECD)-ALP conjugate (human; bovine); experiment: HI-1000 capture immunoassay; primary calibrator C2, 4.89 ng/mL; run 3
[17] = target: CD9(FL)-ALP conjugate (human; bovine); experiment: HI-1000 capture immunoassay; calibrator C5, 30 ng/mL; run 2
[18] = target: CD9(ECD)-ALP conjugate (human; bovine); experiment: HI-1000 capture immunoassay; secondary calibrator C3, 14.32 U/L; run 2
[19] = target: CD9(FL)-ALP conjugate (human; bovine); experiment: HI-1000 capture immunoassay; calibrator C1, 1.83 mU/L; run 2
[20] = target: CD9(ECD)-ALP conjugate (human; bovine); experiment: HI-1000 capture immunoassay; primary calibrator C3, 15.65 ng/mL; run 3
[21] = target: CD9(FL)-ALP conjugate (human; bovine); experiment: HI-1000 capture immunoassay; calibrator C1, 1.0 ng/mL; mean of 3
[22] = target: CD9(FL)-ALP conjugate (human; bovine); experiment: HI-1000 capture immunoassay; calibrator C3, 7.4 ng/mL; mean of 3
[23] = target: CD9(FL)-ALP conjugate (human; bovine); experiment: HI-1000 capture immunoassay; calibrator C2, 3.7 ng/mL; run 1
[24] = target: CD9(ECD)-ALP conjugate (human; bovine); experiment: HI-1000 capture immunoassay; primary calibrator C5, 159.87 ng/mL; run 1
[25] = target: CD9(FL)-ALP conjugate (human; bovine); experiment: HI-1000 capture immunoassay; calibrator C5, 30 ng/mL; run 1
[26] = target: CD9(FL)-ALP conjugate (human; bovine); experiment: HI-1000 capture immunoassay; calibrator C4, 15 ng/mL; run 2
[27] = target: CD9(ECD)-ALP conjugate (human; bovine); experiment: HI-1000 capture immunoassay; thawed aliquot 2 of secondary calibrator C1
[28] = target: CD9(ECD)-ALP conjugate (human; bovine); experiment: HI-1000 capture immunoassay; secondary calibrator C4, 129.62 U/L; mean of 3
[29] = target: CD9(ECD)-ALP conjugate (human; bovine); experiment: HI-1000 capture immunoassay; primary calibrator C4, 50.05 ng/mL; run 3
[30] = target: CD9(FL)-ALP conjugate (human; bovine); experiment: HI-1000 capture immunoassay; calibrator C1, 1.0 ng/mL; run 3
[31] = target: CD9(FL)-ALP conjugate (human; bovine); experiment: HI-1000 capture immunoassay; calibrator C3, 10.96 mU/L; mean of 3
[32] = target: CD9(ECD)-ALP conjugate (human; bovine); experiment: HI-1000 capture immunoassay; thawed aliquot 3 of secondary calibrator C1
[33] = target: CD9(ECD)-ALP conjugate (human; bovine); experiment: HI-1000 capture immunoassay; secondary calibrator C5, 387.01 U/L; run 1
[34] = target: CD9(ECD)-ALP conjugate (human; bovine); experiment: HI-1000 capture immunoassay; primary calibrator C1, 1.52 ng/mL; mean of 3
[35] = target: CD9(ECD)-ALP conjugate (human; bovine); experiment: HI-1000 capture immunoassay; secondary calibrator C2, 3.84 U/L; mean of 3
[36] = target: CD9(FL)-ALP conjugate (human; bovine); experiment: HI-1000 capture immunoassay; calibrator C2, 3.7 ng/mL; run 3
[37] = target: CD9(ECD)-ALP conjugate (human; bovine); experiment: HI-1000 capture immunoassay; primary calibrator C4, 50.05 ng/mL; mean of 3
[38] = target: CD9(ECD)-ALP conjugate (human; bovine); experiment: HI-1000 capture immunoassay; secondary calibrator C2, 3.84 U/L; run 1
[39] = target: CD9(FL)-ALP conjugate (human; bovine); experiment: HI-1000 capture immunoassay; calibrator C3, 7.4 ng/mL; run 2
[40] = target: CD9(ECD)-ALP conjugate (human; bovine); experiment: HI-1000 capture immunoassay; thawed aliquot 1 of secondary calibrator C2

Sequence of CD9(ECD)-ALP conjugate (human; bovine) (chain, as listed by the source, chain 1 of 2): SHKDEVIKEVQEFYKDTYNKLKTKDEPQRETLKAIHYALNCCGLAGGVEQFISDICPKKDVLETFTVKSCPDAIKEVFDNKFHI
Sequence of CD9(ECD)-ALP conjugate (human; bovine) (P19111 20-506, chain 2 of 2): as the sequence (P19111 20-506, chain 2 of 2) above

- Count value [1]: 937 count
- Count value [2]: 21800 count
- Count value [3]: 209000 count
- Count value [4]: 11400 count
- Count value [5]: 13400 count
- Count value [6]: 26100 count
- Count value [7]: 27800 count
- Count value [8]: 7230 count
- Count value [9]: 1080 count
- Count value (av) [10]: 69800 count
- Count value [11]: 3830 count
- Count value (av) [12]: 1560 count
- Count value (av) [13]: 7190 count
- Count value (av) [14]: 1540 count
- Count value [15]: 7340 count
- Count value [16]: 2540 count
- Count value [17]: 26900 count
- Count value [18]: 8240 count
- Count value [19]: 1580 count
- Count value [20]: 6980 count
- Count value (av) [21]: 1480 count
- Count value (av) [22]: 7020 count
- Count value [23]: 5360 count
- Count value [24]: 70400 count
- Count value [25]: 24600 count
- Count value [26]: 13800 count
- Count value [27]: 810 count
- Count value (av) [28]: 70000 count
- Count value [29]: 22600 count
- Count value [30]: 1470 count
- Count value (av) [31]: 6750 count
- Count value [32]: 805 count
- Count value [33]: 220000 count
- Count value (av) [34]: 1100 count
- Count value (av) [35]: 2390 count
- Count value [36]: 3800 count
- Count value (av) [37]: 22200 count
- Count value [38]: 2420 count
- Count value [39]: 7020 count
- Count value [40]: 1560 count
Substance: anti-CD9 antibody (Clone: H19a)
